From article PMC8796304 (ACS Central Science, 2021)
Substitutions are numbered along the chain they refer to. Ends that are not written are not given here.

T1: GPI-anchored myc peptide tag (Homo sapiens c-Myc epitope tag, UniProt P01106, also: GPI anchor)
T1 chain: EQKLISEEDL

B1: ML7 (antibody, V domains shown)
VH: EVQLVESGGGLVQPGGSLRLSCAASGFNIYYYSMHWVRQAPGKGLEWVASISSYYGYTYYADSVKGRFTISADTSKNTAYLQMNSLRAEDTAVYYCARSWGYGGSSSYALDYWGQGTLVTVSS
VL: DIQMTQSPSSLSASVGDRVTITCRASQSVSSAVAWYQQKPGKAPKLLIYSASSLYSGVPSRFSGSRSGTDFTLTISSLQPEDFATYYCQQVGGGPITFGQGTKVEIK
B2: ML8 (antibody, V domains shown)
VH: B1 VH
VL: DIQMTQSPSSLSASVGDRVTITCRASQSVSSAVAWYQQKPGKAPKLLIYSASSLYSGVPSRFSGSRSGTDFTLTISSLQPEDFATYYCQQYAYPVYFLITFGQGTKVEIK
B3: ML9 (antibody, V domains shown)
VH: B1 VH
VL: B2 VL with Y91G, A92W, Y93W, P94G, V95Y, F97S

Key:
[1] = molecular target: T1, GPI-anchored myc peptide tag; assay: flow cytometry on cells
[2] = molecular target: T2, Frizzled-7/Fc chimera protein (Homo sapiens, UniProt O75084); assay: ELISA
[3] = molecular target: T2, Frizzled-7/Fc chimera protein; assay: BLI
[4] = molecular target: human Frizzled-7 on Fzd7+myc+ CHO cells (Homo sapiens, UniProt O75084); assay: flow cytometry on cells
[5] = molecular target: Frizzled 2 extracellular domain (Homo sapiens (assumed), UniProt Q14332); assay: ELISA
[6] = molecular target: Frizzled 1 extracellular domain (Homo sapiens (assumed), UniProt Q9UP38); assay: ELISA
Frizzled 1 extracellular domain, sequence (Q9UP38 whole entry, looked up, the tested form may be a part): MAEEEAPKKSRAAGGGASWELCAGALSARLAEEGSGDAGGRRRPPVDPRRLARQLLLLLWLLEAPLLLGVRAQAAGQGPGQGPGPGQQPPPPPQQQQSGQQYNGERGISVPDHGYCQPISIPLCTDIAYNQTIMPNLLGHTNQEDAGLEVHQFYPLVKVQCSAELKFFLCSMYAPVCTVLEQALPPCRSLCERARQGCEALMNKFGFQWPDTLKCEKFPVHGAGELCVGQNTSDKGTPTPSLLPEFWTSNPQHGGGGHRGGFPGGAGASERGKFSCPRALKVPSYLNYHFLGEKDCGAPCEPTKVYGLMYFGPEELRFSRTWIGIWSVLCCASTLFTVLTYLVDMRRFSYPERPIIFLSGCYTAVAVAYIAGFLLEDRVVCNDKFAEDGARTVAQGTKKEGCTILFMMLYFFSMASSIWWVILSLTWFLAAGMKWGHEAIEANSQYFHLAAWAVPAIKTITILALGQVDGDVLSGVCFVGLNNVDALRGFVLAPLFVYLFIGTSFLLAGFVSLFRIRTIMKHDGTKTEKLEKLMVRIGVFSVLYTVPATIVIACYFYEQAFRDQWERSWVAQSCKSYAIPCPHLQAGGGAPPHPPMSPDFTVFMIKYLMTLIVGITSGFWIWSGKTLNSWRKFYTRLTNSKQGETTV

Frizzled 2 extracellular domain, sequence (Q14332 whole entry, looked up, the tested form may be a part): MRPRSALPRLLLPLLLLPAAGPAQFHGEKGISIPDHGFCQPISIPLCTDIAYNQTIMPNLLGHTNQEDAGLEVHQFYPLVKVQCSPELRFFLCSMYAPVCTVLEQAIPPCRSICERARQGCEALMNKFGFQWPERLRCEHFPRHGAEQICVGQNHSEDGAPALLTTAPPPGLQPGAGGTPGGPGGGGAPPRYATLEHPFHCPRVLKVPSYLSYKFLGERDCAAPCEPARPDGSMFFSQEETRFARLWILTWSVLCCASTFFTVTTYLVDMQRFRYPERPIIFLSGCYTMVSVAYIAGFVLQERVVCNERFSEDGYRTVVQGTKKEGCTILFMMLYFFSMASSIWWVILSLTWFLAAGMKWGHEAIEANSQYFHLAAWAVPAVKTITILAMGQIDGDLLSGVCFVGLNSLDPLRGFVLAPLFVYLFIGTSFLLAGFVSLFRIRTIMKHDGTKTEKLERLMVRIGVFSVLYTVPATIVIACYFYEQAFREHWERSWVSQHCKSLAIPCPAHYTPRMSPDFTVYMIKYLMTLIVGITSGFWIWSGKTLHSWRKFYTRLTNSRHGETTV

Row | Binder | binding result [1] | EC50 [2] [nM] | Kd [3] [nM] | EC50 [4] [nM] | binding result [5] | binding result [6]
1 | B1 | no binding (tested: 50 nM) | < 10 | 0.448 ± 0.053 | < 10 | binds | binds
2 | B2 | no binding (tested: 50 nM) | < 10 | 4.98 ± 0.28 | < 10 | – | –
3 | B3 | no binding (tested: 50 nM) | – | 0.292 ± 0.066 | – | – | –
